Columns and labels:
Assay in all cases: Kinase Profiling Assay
Format in all cases: biochemical
Details in all cases: 100 μM peptide
[1] = target: Tie2(Y897S)(h) (Homo sapiens, UniProt Q02763, Y897S)
Method in brief: (§1)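 All 266 human kinases of a profiling service were assayed in duplicate to establish whether MK2 inhibitory peptides act specifically.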

[2] = target: T1, Ron(h) (Homo sapiens, UniProt Q04912)
T1 construct: purchased Millipore (IC50 Profiler Express service)
Method in brief: as §1

[3] = target: Fgr(h) (Homo sapiens, UniProt P09769)
Method in brief: as §1

[4] = target: T2, IGF-1R(h), activated (Homo sapiens, UniProt P08069)
T2 construct: purchased Millipore
Method in brief: as §1

[5] = target: T3, IR(h), activated (Homo sapiens, UniProt P06213)
T3 construct: purchased Millipore
Method in brief: as §1

[6] = target: LIMK1(h) (Homo sapiens, UniProt P53667)
Method in brief: as §1

[7] = target: T4, Tec(h) activated (Homo sapiens, UniProt P42680)
T4 sequence (P42680 1-631): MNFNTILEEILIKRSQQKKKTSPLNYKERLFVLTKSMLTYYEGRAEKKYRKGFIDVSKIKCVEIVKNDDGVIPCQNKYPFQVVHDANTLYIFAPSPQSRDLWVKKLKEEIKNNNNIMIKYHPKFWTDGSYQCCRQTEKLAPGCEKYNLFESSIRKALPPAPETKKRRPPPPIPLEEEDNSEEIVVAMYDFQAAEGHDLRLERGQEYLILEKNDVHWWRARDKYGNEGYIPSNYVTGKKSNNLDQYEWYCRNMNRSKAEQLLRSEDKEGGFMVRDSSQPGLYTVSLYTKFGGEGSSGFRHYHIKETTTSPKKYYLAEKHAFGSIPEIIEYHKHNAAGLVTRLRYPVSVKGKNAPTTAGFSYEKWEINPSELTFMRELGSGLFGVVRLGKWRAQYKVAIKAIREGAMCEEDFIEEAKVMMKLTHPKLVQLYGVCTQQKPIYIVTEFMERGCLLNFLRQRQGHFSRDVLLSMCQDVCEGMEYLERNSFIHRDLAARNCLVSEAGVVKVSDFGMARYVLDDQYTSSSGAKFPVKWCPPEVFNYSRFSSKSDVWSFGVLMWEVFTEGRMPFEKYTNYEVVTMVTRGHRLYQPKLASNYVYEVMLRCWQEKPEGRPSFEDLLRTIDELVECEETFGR
Method in brief: as §1

[8] = target: T5, PKD2(h) (Homo sapiens, UniProt Q9BZL6)
T5 construct: purchased Millipore (IC50 Profiler Express service)
T5 sequence (Q9BZL6 1-878): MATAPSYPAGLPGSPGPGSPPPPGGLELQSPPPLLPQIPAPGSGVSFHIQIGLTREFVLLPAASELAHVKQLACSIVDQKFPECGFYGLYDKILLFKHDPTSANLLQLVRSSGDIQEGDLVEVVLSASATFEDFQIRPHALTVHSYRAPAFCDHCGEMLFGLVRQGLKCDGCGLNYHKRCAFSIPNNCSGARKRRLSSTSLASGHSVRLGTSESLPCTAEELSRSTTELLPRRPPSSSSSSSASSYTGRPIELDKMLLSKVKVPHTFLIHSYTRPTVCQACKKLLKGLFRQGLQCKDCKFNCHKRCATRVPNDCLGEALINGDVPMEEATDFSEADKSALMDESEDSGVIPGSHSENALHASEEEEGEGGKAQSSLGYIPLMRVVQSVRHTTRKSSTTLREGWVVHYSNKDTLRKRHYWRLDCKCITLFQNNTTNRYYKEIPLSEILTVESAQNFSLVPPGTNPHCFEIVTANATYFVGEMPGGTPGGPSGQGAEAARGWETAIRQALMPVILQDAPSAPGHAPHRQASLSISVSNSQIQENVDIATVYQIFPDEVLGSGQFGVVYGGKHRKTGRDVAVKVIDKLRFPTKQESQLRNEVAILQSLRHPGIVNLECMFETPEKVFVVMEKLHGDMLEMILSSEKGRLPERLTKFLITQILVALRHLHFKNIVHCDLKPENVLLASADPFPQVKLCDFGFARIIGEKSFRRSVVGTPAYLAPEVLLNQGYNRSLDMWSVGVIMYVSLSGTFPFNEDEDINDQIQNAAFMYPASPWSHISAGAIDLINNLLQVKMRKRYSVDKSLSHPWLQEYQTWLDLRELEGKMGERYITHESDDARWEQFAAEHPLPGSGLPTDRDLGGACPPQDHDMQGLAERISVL
Method in brief: as §1

[9] = target: Fes(h) (Homo sapiens, UniProt P07332)
Method in brief: as §1

[10] = target: T6, Ret(V804M)(h) (Homo sapiens, UniProt P07949, V804M)
T6 construct: purchased Millipore (IC50 Profiler Express service)
Method in brief: as §1

[11] = target: T7, Itk(h) (Homo sapiens, UniProt Q08881)
T7 construct: purchased Millipore
T7 sequence (Q08881 1-620): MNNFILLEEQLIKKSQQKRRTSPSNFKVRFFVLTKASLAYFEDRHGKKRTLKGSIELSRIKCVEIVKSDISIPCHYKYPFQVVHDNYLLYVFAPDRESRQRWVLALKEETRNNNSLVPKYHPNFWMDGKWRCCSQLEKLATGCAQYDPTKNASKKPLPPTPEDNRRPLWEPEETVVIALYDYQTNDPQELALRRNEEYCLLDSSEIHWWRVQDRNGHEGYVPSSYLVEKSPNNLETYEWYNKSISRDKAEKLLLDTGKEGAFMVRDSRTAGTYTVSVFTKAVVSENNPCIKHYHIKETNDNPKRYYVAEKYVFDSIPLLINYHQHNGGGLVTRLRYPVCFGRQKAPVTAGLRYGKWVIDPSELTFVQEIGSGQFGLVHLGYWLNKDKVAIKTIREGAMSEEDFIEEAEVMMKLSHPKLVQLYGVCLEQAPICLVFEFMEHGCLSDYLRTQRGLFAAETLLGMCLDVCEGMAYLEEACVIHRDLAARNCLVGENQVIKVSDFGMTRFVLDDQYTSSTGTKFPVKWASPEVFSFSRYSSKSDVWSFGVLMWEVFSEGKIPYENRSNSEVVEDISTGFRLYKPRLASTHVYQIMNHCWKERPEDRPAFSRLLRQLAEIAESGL
Method in brief: as §1

[12] = target: CDK6/cyclinD3(h) (Homo sapiens, UniProt Q00534)
Method in brief: as §1

T2 sequence (P08069 959-1367 limits assumed): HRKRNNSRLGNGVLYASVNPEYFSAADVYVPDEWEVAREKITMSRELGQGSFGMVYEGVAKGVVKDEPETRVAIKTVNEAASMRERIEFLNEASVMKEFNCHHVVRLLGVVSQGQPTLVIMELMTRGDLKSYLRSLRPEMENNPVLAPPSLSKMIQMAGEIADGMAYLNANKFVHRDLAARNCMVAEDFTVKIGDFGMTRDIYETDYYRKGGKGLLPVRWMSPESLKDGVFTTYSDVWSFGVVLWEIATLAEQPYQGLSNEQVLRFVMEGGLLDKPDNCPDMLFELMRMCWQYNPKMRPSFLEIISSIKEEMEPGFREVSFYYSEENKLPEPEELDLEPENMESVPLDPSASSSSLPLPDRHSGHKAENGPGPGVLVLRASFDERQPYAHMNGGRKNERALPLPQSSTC
T3 sequence (P06213 1005-1310 limits assumed): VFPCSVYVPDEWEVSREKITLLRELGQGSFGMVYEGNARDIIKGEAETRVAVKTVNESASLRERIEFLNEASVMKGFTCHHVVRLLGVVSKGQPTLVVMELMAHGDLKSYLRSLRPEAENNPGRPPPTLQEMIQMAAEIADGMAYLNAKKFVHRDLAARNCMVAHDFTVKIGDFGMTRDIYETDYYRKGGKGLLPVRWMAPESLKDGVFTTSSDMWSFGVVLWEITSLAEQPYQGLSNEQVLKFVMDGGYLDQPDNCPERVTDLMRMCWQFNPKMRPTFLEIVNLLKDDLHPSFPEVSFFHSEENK
Chain of LIMK1(h) (P53667 whole entry): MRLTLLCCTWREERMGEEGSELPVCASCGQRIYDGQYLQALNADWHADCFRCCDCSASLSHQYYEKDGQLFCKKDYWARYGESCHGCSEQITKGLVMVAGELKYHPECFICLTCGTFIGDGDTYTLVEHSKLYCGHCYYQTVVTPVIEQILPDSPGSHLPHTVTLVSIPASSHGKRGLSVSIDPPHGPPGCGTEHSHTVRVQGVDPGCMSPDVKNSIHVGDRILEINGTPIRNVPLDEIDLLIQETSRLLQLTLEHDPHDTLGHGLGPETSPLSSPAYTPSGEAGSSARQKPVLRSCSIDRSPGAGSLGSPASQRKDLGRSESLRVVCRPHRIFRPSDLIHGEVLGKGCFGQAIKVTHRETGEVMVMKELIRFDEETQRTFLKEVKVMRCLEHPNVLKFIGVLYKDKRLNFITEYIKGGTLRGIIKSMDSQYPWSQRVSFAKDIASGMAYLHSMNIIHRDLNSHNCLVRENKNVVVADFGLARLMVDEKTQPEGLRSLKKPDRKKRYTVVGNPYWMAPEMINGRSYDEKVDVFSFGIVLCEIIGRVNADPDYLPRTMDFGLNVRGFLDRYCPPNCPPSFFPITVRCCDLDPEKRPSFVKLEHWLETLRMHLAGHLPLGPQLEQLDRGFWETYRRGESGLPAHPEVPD
Chain of CDK6/cyclinD3(h) (Q00534 whole entry): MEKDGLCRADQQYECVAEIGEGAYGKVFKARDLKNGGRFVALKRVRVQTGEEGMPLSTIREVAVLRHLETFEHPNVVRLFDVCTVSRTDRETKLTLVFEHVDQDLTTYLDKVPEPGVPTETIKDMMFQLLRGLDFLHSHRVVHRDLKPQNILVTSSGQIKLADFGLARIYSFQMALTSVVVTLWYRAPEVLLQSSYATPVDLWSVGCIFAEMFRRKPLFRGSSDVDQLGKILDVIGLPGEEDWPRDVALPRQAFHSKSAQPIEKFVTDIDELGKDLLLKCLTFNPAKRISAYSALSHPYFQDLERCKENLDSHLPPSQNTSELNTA
Chain of CDK6/cyclinD3(h) (P30281 whole entry partner): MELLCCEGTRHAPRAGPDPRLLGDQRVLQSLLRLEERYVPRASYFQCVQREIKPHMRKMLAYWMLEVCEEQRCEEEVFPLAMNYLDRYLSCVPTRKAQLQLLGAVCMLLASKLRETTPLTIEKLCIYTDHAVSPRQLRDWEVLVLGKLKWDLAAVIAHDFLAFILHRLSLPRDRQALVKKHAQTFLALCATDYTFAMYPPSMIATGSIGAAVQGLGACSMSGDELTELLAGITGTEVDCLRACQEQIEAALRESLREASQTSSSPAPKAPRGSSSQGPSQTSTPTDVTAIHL
Chain of Fes(h) (P07332 whole entry): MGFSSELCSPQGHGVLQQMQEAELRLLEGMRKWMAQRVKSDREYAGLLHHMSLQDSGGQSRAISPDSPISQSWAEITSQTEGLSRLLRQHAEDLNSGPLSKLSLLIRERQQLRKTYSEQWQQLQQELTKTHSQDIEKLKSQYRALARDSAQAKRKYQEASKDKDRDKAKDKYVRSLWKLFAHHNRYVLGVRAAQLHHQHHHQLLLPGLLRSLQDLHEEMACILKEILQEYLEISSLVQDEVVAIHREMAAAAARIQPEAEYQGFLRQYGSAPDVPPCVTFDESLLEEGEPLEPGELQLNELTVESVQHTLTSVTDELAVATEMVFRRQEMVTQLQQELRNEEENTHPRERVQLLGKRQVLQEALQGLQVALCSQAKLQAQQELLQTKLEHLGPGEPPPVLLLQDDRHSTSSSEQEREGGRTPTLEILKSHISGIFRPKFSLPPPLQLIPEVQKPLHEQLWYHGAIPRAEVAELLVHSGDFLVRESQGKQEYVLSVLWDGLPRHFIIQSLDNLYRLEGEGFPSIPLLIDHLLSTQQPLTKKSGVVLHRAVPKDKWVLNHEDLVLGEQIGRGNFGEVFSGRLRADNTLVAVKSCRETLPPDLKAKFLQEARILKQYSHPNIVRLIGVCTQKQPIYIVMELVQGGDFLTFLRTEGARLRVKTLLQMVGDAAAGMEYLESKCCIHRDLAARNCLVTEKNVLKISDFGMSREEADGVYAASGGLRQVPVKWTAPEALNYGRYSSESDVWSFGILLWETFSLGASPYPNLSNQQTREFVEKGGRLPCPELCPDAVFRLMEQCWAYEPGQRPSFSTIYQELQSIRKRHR
Chain of Tie2(Y897S)(h) (Q02763 23-1124 Y897S): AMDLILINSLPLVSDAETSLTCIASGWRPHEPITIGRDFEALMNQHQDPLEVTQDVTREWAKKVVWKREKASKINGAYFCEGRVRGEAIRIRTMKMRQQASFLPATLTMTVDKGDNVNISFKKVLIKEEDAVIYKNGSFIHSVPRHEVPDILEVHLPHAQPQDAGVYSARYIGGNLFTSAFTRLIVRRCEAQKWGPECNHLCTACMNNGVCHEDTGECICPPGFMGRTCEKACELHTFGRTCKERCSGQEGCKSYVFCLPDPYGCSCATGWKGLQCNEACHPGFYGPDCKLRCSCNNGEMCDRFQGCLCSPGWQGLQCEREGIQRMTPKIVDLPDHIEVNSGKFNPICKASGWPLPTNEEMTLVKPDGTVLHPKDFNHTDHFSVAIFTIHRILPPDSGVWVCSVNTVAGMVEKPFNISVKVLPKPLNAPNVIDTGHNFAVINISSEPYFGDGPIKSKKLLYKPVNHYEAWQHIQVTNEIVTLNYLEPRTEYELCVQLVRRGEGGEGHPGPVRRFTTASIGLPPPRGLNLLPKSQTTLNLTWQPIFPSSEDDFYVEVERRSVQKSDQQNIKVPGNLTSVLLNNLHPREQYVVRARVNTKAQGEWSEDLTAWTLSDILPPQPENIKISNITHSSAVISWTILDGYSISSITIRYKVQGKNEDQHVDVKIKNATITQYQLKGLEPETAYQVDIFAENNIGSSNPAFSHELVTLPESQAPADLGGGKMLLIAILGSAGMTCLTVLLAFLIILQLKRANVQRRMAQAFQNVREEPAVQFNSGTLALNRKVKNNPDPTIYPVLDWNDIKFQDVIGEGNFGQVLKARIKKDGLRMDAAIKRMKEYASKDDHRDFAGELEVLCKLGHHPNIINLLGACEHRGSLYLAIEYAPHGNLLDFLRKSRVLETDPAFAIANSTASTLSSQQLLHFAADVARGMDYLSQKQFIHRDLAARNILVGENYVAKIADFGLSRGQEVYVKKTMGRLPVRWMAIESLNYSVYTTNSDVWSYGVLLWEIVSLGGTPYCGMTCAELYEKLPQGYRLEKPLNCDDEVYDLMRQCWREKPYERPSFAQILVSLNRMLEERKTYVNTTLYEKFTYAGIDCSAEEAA

Sequence | Tie2(Y897S)(h) % activity [1] [%] | Ron(h) % activity [2] [%] | Fgr(h) % activity [3] [%] | IGF-1R(h), activated % activity [4] [%] | IR(h), activated % activity [5] [%] | LIMK1(h) % activity [6] [%] | Tec(h) activated % activity [7] [%] | PKD2(h) % activity [8] [%] | Fes(h) % activity [9] [%] | Ret(V804M)(h) % activity [10] [%] | Itk(h) % activity [11] [%] | CDK6/cyclinD3(h) % activity [12] [%]
FAKLAARLYRKALARQLGVAA [MMI-0300] | 83 | 93 | 60 | 80 | 79 | 88 | 56 | 33 | 20 | 95 | 77 | 86
HRRIKAWLKKIKALARQLGVAA (Mammalian) [MMI-0500] | 80 | 46 |  | 45 | 90 | 87 | 33 | 10 | 23 | 36 | 7 | 23
KAFAKLAARLYRKALARQLGVAA [MMI-0400] | 87 | 79 | 47 | 77 | 59 | 92 | 29 | 25 | 16 | 87 | 63 | 85
YARAAARQARAKALNRQLGVA (Mammalian) [MMI-0200] | 85 | 120 | 71 | 94 |  |  | 77 | 78 | 74 |  | 98 | 100

Reference: US10562947B2, “Compositions and methods for preventing or treating diseases, conditions or processes characterized by aberrant fibroblast proliferation and extracellular matrix deposition” (MOERAE MATRIX, INC., priority 2011, dated 2020)
